The results in this text go back to patent US20220289846A1 (ZYDUS LIFESCIENCES, published 2022).

This assay deals with T1, Human PD-1 (AcroBiosystems) (human, UniProt Q15116 25-167, limits assumed).
T1 construct: Bought recombinant protein, amine-coupled to the SPR chip
Put plainly: SPR (ProteOn XPR), human PD-1 amine-coupled on GLC chip, antibody as analyte, Langmuir model. The protocol: Human PD-1 (AcroBiosystems) was directly immobilized onto the GLC Chip (ProteOn) using amine-coupling method to obtain a ligand immobilization level of about 500 RU. 10 mM Phosphate Buffered Saline (PBS) (10mM phosphate buffer, pH 7.4, 300 mM NaCl, 0.005% Surfactant P20) was used as the running buffer to carry out the kinetic measurements. All the one step purified antibody samples were diluted in running buffer described above at a suitable concentration in series of concentrations from 10 nM to 0.09 nM. These samples were injected over the chip at a flow rate of 50 μL/min with an association time of 300 s and dissociation time of 1800s. After each sample run, the chip surface was regenerated with 10mM Glycine Buffer pH 1.5 for 18 sec at a flow rate of 100 μL/min.
KD values (Kinetic constants) were determined as the ratio of dissociation rate (kd) to association rate (ka), i.e. KD =kd/ka using ProteOn manager software v3.1.0.6.

T1 sequence (Q15116 25-167 limits assumed): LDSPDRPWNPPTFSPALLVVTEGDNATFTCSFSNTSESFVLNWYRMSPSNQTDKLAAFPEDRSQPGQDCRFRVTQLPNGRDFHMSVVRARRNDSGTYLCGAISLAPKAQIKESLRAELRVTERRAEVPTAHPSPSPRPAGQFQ

B1: IP-H4L1 (IgG4) (antibody)
heavy: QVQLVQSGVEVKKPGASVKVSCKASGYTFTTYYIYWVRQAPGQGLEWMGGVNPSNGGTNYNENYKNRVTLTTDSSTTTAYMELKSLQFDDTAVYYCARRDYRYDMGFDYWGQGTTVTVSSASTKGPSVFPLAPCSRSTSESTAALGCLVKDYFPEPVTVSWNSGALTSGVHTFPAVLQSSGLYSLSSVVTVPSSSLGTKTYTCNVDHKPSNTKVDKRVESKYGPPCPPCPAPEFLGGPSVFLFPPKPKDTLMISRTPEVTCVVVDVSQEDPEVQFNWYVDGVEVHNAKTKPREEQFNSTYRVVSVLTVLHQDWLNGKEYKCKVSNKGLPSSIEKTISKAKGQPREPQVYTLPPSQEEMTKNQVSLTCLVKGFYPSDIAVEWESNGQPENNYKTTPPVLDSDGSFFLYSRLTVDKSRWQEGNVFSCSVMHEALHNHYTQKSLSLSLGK
light: EIVLTQSPATLSLSPGERATLSCRASKGVSTSGYSYLHWYQQKPGQAPRLLIYLASYLESGVPARFSGSGSGTDFTLTISSLEPEDFAVYYCQHSRDLPLTFGGGTKVEIKRTVAAPSVFIFPPSDEQLKSGTASVVCLLNNFYPREAKVQWKVDNALQSGNSQESVTEQDSKDSTYSLSSTLTLSKADYEKHKVYACEVTHQGLSSPVTKSFNRGEC
With B1, binding was put at a Kd of 0.0286 nM, the koff was 5.36e-05 s⁻¹ and the kon is 1.87e+06 M⁻¹ s⁻¹.

B2: IP-H4L1 (IgG1) (antibody)
heavy: not shown
light: EIVLTQSPATLSLSPGERATLSCRASKGVSTSGYSYLHWYQQKPGQAPRLLIYLASYLESGVPARFSGSGSGTDFTLTISSLEPEDFAVYYCQHSRDLPLTFGGGTKVEIKRTVAAPSVFIFPPSDEQLKSGTASVVCLLNNFYPREAKVQWKVDNALQSGNSQESVTEQDSKDSTYSLSSTLTLSKADYEKHKVYACEVTHQGLSSPVTKSFNRGEC
For the molecule B2, the Kd came to 0.0248 nM, the koff was found to be 5.21e-05 s⁻¹ and the kon came to 2.12e+06 M⁻¹ s⁻¹.

B3: IP-H4.19L1 (antibody, human IgG4 S228P, kappa, V domains shown)
VH: QVQLVQSGVEVKKPGASVKVSCKASGYTFTTYYIYWVRQAPGQGLEWMGGVNPSNSGTNYNENYKNRVTLTTDSSTTTAYMELKSLQFDDTAVYYCARRDYRYDMGFDYWGQGTTVTVSS
VL: EIVLTQSPATLSLSPGERATLSCRASKGVSTSGYSYLHWYQQKPGQAPRLLIYLASYLESGVPARFSGSGSGTDFTLTISSLEPEDFAVYYCQHSRDLPLTFGGGTKVEIKR
As for B3, the Kd is 0.0409 nM, the koff is 6.28e-05 s⁻¹ and the kon is 1.54e+06 M⁻¹ s⁻¹.

B4: IP-H4.2L1 (antibody, human IgG4 S228P, kappa, V domains shown)
VH: QVQLVQSGVEVKKPGASVKVSCKASGYTFTTYYIYWVRQAPGQGLEWMGGVNPSNGGTNYNENYKNRVTLTTDSSTTTAYMELKSLQFDDTAVYYCARRDYRYDMGYDYWGQGTTVTVSS
VL: EIVLTQSPATLSLSPGERATLSCRASKGVSTSGYSYLHWYQQKPGQAPRLLIYLASYLESGVPARFSGSGSGTDFTLTISSLEPEDFAVYYCQHSRDLPLTFGGGTKVEIKR
In turn, B4 registered a Kd of 0.0082 nM, a koff of 1.37e-05 s⁻¹ and an association rate constant (kon) of 1.67e+06 M⁻¹ s⁻¹.

B5: IP-H4.36L1 (antibody, human IgG4 S228P, kappa, V domains shown)
VH: QVQLVQSGVEVKKPGASVKVSCKASGYTFTTYYIYWVRQAPGQGLEWMGGVNPSNGGTNYNQNYKNRVTLTTDSSTTTAYMELKSLQFDDTAVYYCARRDYRYDMGFDYWGQGTTVTVSS
VL: EIVLTQSPATLSLSPGERATLSCRASKGVSTSGYSYLHWYQQKPGQAPRLLIYLASYLESGVPARFSGSGSGTDFTLTISSLEPEDFAVYYCQHSRDLPLTFGGGTKVEIKR
In turn, B5 yielded a dissociation constant Kd of 0.0317 nM, a koff of 6.2e-05 s⁻¹ and a kon of 1.96e+06 M⁻¹ s⁻¹.

B6: N7NL (antibody, human IgG4 S228P, kappa, V domains shown)
VH: QVQLVESGGGVVQPGRSLRLDCKASGITFSNSGMHWVRQAPGKGLEWVAVIWYDGSKRYYADSVKGRFTISRDNSKNTLFLQMNSLRAEDTAVYYCATNSDYWGQGTLVTVSS
VL: EIVLTQSPATLSLSPGERATLSCRASQSVSSYLAWYQQKPGQAPRLLIYDASNRATGIPARFSGSGSGTDFTLTISSLEPEDFAVYYCQQSSNWPRTFGQGTKVEIKR
notes: Full-length IgG4 from the pZRCIII hyg.IgG4 vector
In the case of B6, the dissociation constant Kd is 0.0491 nM, the koff amounted to 9.54e-05 s⁻¹ and the kon is 1.95e+06 M⁻¹ s⁻¹.

B7: N6NL (antibody, human IgG4 S228P, kappa, V domains shown)
VH: QVQLVESGGGVVQPGRSLRLDCKASGITFSNSGMHWVRQAPGKGLEWVAVIWYDGSKRYYADSVKGRFTISRDNSKNTLFLQMNSLRAEDTAVYYCATNSDHWGQGTLVTVSS
VL: EIVLTQSPATLSLSPGERATLSCRASQSVSSYLAWYQQKPGQAPRLLIYDASNRATGIPARFSGSGSGTDFTLTISSLEPEDFAVYYCQQSSNWPRTFGQGTKVEIKR
notes: as for B6
With B7, the Kd turned out to be 0.0826 nM, the koff worked out at 0.000154 s⁻¹ and the kon is 1.86e+06 M⁻¹ s⁻¹.

B8: N5NL (antibody, human IgG4 S228P, kappa, V domains shown)
VH: QVQLVESGGGVVQPGRSLRLDCKASGITFSNSGMHWVRQAPGKGLEWVAVIWYDGSKRYYADSVKGRFTISRDNSKNTLFLQMNSLRAEDTAVYYCATNSDFWGQGTLVTVSS
VL: EIVLTQSPATLSLSPGERATLSCRASQSVSSYLAWYQQKPGQAPRLLIYDASNRATGIPARFSGSGSGTDFTLTISSLEPEDFAVYYCQQSSNWPRTFGQGTKVEIKR
notes: Full-length IgG4 from the pZRCIII hyg.IgG4 vector. 'NSNL' in the text is an OCR form of N5NL; also called NSNL
The molecule B8 came in with a Kd of 0.075 nM, a koff of 0.000151 s⁻¹ and a kon of 2.03e+06 M⁻¹ s⁻¹.
